Data as given in article PMC7842835, “Production, Purification and Characterization of Recombinant Biotinylated Phytochrome B for Extracellular Optogenetics” (Bio-protocol, 2020).

Biological target: T1, PhyB(1-651)-AviTag-His6, biotinylated photosensory domain of A. thaliana phytochrome B (A. thaliana, UniProt P14713 1-651, biotin on the AviTag motif (~80% biotinylation); chromophore phycocyanobilin (PCB))
T1 construct: photosensory domain of phytochrome B (PhyB), A. thaliana, amino acids 1-651; Expected mass 74 kDa; also called PhyB-AviTag; source: E. coli BL21 Star (DE3), plasmid pMH1105 with HO1 and PcyA, purified (Ni-NTA IMAC, desalting); not shown: AviTag, C-terminal, kept
T1 sequence (looked up): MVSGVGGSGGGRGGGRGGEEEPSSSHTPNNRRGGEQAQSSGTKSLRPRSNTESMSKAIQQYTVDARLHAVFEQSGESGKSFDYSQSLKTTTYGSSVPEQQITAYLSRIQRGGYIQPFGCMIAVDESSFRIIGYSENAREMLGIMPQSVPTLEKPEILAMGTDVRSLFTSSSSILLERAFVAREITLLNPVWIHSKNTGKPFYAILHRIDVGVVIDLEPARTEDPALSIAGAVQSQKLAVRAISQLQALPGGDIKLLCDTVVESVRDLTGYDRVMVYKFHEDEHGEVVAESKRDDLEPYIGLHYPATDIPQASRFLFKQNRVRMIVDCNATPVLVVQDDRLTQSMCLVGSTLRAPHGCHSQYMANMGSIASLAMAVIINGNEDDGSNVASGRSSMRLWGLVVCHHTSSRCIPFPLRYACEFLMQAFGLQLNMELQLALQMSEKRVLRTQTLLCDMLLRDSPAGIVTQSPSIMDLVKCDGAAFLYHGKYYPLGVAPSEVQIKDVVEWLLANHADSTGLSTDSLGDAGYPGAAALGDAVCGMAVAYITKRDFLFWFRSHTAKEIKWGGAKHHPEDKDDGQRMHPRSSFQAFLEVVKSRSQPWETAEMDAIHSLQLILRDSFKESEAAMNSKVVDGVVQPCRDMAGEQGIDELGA
Assay: SEC; equimolar mixture of PhyB-AviTag (2.2 mg/ml) and GFP-PIF6 (1.2 mg/ml) in protein buffer (PBS, 0.5 mM TCEP), illuminated 3 min with 660 nm light (100 µmol/(m^2·s)), Superdex 200 Increase 10/300 GL run in the dark, 1 ml/min, absorbance at 280, 488 and 671 nm; never frozen and frozen-thawed proteins; compared with 740 nm illumination
Settings: both partners purified

B1: GFP-PIF6(1-100)-His6 (domain or fragment, A. thaliana, UniProt Q8L5W7 1-100, looked up)
chain: MMFLPTDYCCRLSDQEYMELVFENGQILAKGQRSNVSLHNQRTKSIMDLYEAEYNEDFMKSIIHGGGGAITNLGDTQVVPQSHVAAAHETNMLESNKHVD
notes: Expected mass 40 kDa; source: E. coli BL21 (DE3)pLysS, plasmid pHB111, purified as described for PhyB-AviTag (Ni-NTA IMAC, desalting); not shown: GFP, N-terminal, kept
- binding result: binds
